Assay results: patent US20220049002A1 (KINDRED BIOSCIENCES, published 2022)

What was measured:
[1] = molecular target: Equine IL4R-ECD_C-HuFc_His6 (processed) (equine); test: Western blot, reducing and non-reducing SDS-PAGE
Description: (§1) Cross-reactivity of Clone I antibody to feline, equine, murine, and human IL4R was also investigated. Canine IL4R-ECD_C-HuFc_His6 (SEQ ID NO: 109), feline IL4R-ECD_C-HuFc_His6 (SEQ ID NO: 111), equine IL4R-ECD_C-HuFc_His6 (SEQ ID NO: 113), murine IL4R-ECD_C-HuFc_His6 (SEQ ID NO: 115), and human IL4R-ECD_C-HuFc_His6 (SEQ ID NO: 117) (0.1 μg/lane) were each separated by SDS-PAGE under reducing (+DTT) or non-reducing (−DTT) conditions. The proteins were transferred to PVDF membranes and the blots were probed with Clone I antibody (0.3 μg/mL) and visualized by goat anti-mouse IgG-HRP (FIG. 4A). As a control, the blot was stripped and probed with goat anti-human IgG Fc-HRP to visualize the presence of the IL4R-ECD proteins (FIG. 4B). Clone I antibody immunoreacted with canine IL4R-ECD_C-HuFc_His6 and to a lesser extent with feline IL4R-ECD_C-HuFc_His6 under non-reducing conditions (FIG. 4A, lanes 5 and 1, respectively).

[2] = molecular target: Murine IL4R-ECD_C-HuFc_His6 (processed) (murine); test: Western blot, reducing and non-reducing SDS-PAGE
Murine IL4R-ECD_C-HuFc_His6 (processed) (murine), sequence (chain, as listed by the source limits assumed): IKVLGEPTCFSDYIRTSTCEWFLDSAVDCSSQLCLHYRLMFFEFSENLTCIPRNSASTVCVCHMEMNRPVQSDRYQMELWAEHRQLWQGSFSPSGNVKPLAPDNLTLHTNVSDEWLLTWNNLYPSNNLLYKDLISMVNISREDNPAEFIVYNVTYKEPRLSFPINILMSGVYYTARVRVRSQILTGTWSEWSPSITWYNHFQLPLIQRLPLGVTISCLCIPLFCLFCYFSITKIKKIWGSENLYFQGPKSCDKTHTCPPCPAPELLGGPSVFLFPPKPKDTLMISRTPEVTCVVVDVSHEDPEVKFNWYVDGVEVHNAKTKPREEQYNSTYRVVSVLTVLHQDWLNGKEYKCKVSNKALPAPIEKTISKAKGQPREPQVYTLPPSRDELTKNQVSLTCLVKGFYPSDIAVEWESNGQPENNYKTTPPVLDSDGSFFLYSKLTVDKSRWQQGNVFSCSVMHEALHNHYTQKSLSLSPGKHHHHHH
Description: as §1

[3] = molecular target: Human IL4R-ECD_C-HuFc_His6 (processed) (human); test: Western blot, reducing and non-reducing SDS-PAGE
Human IL4R-ECD_C-HuFc_His6 (processed) (human), sequence (chain, as listed by the source limits assumed): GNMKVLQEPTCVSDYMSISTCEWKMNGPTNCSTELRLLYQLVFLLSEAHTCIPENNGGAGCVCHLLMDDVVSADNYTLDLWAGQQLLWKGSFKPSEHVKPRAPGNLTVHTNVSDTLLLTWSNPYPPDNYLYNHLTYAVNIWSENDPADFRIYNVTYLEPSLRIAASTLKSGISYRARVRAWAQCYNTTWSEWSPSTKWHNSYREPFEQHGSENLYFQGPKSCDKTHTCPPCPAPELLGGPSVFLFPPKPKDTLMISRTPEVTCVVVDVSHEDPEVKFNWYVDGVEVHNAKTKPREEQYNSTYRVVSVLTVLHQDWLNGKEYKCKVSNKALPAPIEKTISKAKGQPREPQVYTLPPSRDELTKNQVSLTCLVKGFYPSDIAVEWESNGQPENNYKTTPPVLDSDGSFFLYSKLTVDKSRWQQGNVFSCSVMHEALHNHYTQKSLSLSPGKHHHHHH
Description: as §1

[4] = molecular target: Canine/Human IL4R-ECD_C-HuFc_His6_Hybrid1 (canine/human hybrid); test: Western blot, non-reducing, 293 supernatant concentrated 3-fold
Canine/Human IL4R-ECD_C-HuFc_His6_Hybrid1 (canine/human hybrid), sequence (chain, as listed by the source limits assumed): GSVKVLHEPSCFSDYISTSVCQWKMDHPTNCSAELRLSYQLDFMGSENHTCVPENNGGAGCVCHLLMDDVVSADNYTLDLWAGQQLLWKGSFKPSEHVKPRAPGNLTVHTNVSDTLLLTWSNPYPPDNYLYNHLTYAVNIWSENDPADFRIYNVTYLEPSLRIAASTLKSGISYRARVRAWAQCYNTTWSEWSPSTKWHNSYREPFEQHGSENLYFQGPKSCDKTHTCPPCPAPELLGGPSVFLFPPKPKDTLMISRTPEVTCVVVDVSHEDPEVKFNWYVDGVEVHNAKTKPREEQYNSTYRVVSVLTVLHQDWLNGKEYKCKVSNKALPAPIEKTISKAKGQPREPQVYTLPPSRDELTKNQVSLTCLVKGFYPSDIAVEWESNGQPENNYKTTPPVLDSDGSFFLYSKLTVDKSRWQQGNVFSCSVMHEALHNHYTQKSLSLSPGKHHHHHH

[5] = molecular target: Canine/Human IL4R-ECD_C-HuFc_His6_Hybrid6 (canine/human hybrid); test: as above
Canine/Human IL4R-ECD_C-HuFc_His6_Hybrid6 (canine/human hybrid), sequence (chain, as listed by the source limits assumed): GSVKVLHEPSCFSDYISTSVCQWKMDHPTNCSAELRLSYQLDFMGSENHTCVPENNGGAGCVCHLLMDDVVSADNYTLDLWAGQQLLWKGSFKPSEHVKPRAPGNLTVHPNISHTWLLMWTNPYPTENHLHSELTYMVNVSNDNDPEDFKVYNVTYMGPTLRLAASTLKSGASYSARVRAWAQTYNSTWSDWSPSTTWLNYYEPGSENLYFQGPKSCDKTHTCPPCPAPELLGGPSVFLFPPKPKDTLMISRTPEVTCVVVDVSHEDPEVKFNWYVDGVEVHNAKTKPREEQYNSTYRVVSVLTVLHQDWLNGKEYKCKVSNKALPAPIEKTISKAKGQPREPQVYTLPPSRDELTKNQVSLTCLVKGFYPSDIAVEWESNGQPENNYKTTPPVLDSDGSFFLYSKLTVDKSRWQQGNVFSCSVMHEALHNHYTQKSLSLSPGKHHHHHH

[6] = molecular target: Canine/Human IL4R-ECD_C-HuFc_His6_Hybrid13 (canine/human hybrid); test: as above
Canine/Human IL4R-ECD_C-HuFc_His6_Hybrid13 (canine/human hybrid), sequence (chain, as listed by the source limits assumed): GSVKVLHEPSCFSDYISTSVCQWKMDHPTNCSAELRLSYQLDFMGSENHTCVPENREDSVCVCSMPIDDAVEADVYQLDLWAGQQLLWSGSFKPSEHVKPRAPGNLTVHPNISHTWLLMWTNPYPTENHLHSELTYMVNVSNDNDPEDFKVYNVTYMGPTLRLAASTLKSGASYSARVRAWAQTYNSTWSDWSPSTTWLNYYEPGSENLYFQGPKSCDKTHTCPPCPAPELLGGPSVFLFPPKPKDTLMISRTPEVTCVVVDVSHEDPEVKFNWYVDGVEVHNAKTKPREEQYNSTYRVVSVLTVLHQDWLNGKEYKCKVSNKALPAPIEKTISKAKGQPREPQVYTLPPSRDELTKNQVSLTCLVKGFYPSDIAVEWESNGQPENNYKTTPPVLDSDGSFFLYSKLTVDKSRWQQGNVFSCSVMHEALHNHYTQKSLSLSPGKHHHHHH

[7] = molecular target: Feline IL4R-ECD_C-HuFc_His6 (processed) (feline, biotinylated in the Octet assay of Example 10); test: BLI (Octet): biotinylated feline IL4R-ECD_C-HuFc_His6 on streptavidin tips, Clone I 25 ug/mL, 1:1 model
Feline IL4R-ECD_C-HuFc_His6 (processed) (feline, biotinylated in the Octet assay of Example 10), sequence (chain, as listed by the source limits assumed): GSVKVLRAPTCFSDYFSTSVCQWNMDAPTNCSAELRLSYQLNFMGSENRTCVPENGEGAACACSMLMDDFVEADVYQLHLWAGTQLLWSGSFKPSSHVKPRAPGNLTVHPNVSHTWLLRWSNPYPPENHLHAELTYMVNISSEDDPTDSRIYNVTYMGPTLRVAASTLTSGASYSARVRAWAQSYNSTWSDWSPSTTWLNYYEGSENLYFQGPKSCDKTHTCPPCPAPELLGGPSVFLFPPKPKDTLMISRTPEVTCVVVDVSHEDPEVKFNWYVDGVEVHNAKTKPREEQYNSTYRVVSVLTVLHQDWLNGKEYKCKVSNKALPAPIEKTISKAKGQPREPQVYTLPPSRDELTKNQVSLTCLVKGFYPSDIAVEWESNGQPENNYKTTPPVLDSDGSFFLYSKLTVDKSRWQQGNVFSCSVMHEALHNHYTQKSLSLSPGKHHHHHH
Description: This finding was consistent with in vitro binding affinity measured by Octet Biosensor. Biotinylated feline IL4R-ECD_C-HuFc_His6 (SEQ ID NO: 111) was captured on streptavidin sensor tips. The association of Clone I antibody (25 μg/mL) and feline IL4R-ECD_C-HuFc_His6 was monitored for 600 seconds. Dissociation was monitored for 600 seconds. A buffer only blank curve was subtracted to correct for any drift. The data were fit to a 1:1 binding model using ForteBio™ data analysis software to determine the kₒₙ, koff, and the Kd. The buffer for dilutions and all binding steps was 20 mM phosphate, 150 mM NaCl, pH 7.2.

Equine IL4R-ECD_C-HuFc_His6 (processed) (equine), sequence (chain, as listed by the source limits assumed): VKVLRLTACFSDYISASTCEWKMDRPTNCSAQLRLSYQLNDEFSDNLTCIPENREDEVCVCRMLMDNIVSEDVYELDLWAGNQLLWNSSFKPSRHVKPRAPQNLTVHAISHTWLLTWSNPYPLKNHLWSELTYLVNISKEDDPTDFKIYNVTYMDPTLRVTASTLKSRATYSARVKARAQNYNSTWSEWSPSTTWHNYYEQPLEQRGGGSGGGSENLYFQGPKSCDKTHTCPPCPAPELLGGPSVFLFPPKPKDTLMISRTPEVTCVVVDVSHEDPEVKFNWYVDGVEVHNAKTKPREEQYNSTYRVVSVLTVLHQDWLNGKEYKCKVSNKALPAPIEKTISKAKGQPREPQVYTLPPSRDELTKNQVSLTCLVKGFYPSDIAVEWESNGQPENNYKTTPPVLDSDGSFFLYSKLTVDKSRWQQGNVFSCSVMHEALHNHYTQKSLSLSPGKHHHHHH

binding result [4]: binds
binding result [5]: binds
binding result [6]: binds
Kd [7]: 1.1 nM
B1: Clone I antibody (mouse monoclonal anti-canine IL4R) (antibody, mouse IgG1, kappa, V domains shown)
VH: EVQLQQSGPELVKPGASVKMSCKASGYTFTSYVMHWVKQKPGQGLEWIGYINPNNDGTFYNGKFKGKATLTSDKSSSTAYMELSSLTSEDSAVYYCAAFYYGFAYWGQGTLVTVSA
VL: DIVLTQSPSSLSASLGERVSLTCRASQEISGYLSWLQQKPDGTIKRLIYAASTLDSGVPKRFSGSRSGSDFSLTISSLESEDFADYYCLQYASYPWTFGGGAKLEIKR
notes: Mouse IgG; also called anti-IL4R-mAb Clone I
binding result [1]: no binding (tested: Clone I 0.3 ug/mL; 0.1 ug/lane)
binding result [2]: no binding (tested: Clone I 0.3 ug/mL; 0.1 ug/lane)
binding result [3]: no binding (tested: Clone I 0.3 ug/mL; 0.1 ug/lane)
